Test [1] addresses endogenous EPCR expressed on EA.hy926 cells (human (endogenous in EA.hy926)) (UniProt Q9UNN8). As to the kind of experiment: binding to cells, read-out not stated.
Test [2] has as its target Soluble wild-type EPCR (endothelial protein C receptor) (UniProt Q9UNN8).
For test [3], the target named is E86A-sEPCR (soluble EPCR variant) (UniProt Q9UNN8). As to the kind of experiment: ELISA.
The target of test [4] is Soluble wild-type EPCR (endothelial protein C receptor) (UniProt Q9UNN8). The test is described as follows: ELISA.
The target in test [5] is endogenous EPCR expressed on EA.hy926 cells (human (endogenous in EA.hy926)) (UniProt Q9UNN8). The test is described as follows: on-cell western.

Regarding “recombinant CIDRα1.1 domain derived from FCR3 IT4VAR20 PfEMP1 (domain or fragment)”, in test [1], the CIDRα1.1 concentration at complete inhibition of APC binding to endothelial EPCR was 100 nM. The IC50 in test [1] stood at 33 nM; in test [2], 12.5 nM. In test [2], the CIDRα1.1 concentration at complete inhibition of APC binding to sEPCR was 50 nM. Also, the Kd in test [3] came to 4.4 nM; in test [4] it was 4.3 nM; in test [5], 8 nM.
